Consider six molecules from patent US7504234B2, “Assays for S-adenosylmethionine (AdoMet)-dependent methyltransferase activity” (The Regents of the University of Michigan, priority 2006, dated 2009).

In data set [1] the target is T1, hSET8 (Homo sapiens, UniProt Q9NQR1).
T1 construct: A construct of hSET8 encoding residues 191-352 was cloned into the parallel expression vector pHIS2; hexahistidine tag with TEV cleavage site (pHIS2 vector) (N); made in house; host or cells: Escherichia coli BL21 (DE3) Codon Plus RIL
T1 sequence (Q9NQR1 191-352 isoform Q9NQR1-2): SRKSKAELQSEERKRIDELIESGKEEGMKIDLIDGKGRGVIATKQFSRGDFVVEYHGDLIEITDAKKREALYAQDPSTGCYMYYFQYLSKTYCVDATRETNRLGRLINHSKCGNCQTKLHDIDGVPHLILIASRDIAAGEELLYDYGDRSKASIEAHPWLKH
In words: isothermal titration calorimetry, wild-type and mutant histone H4 peptides with hSET8. The format is binding. Conditions: ITC; for histone H4 binding / affinity of hSET8 for mutant histone H4 peptide: 20° C., pH 7.0, saturating AdoHcy; for AdoHcy binding: hSET8 with His-18 mutant H4 peptide. As for the experimental part: The equilibrium dissociation constants of wild type and mutants of hSET8 and histone H4 were determined using a VP-ITC calorimeter (MicroCal, LLC). […] A saturating concentration of AdoHcy (1.0-2.0 mM) was used in all titrations. ITC data were subsequently analyzed using Origin 7.0 (OriginLab Corp.) with blank injections of ligand into buffer subtracted from the experimental titrations prior to data analysis.
A general note: ITC needs no label: the signal is the heat of the interaction.

Data set [2] has as its system their cognate substrates. The note with it: radiometric assay, literature values; cited from earlier work.
The subject of data set [3] is Lys-20 in histone H4. In words: MALDI mass spectrometry of methyltransferase reactions (product specificity). The format is biochemical. The method, then:
Histone methyltransferase assays were performed with wildtype hSET8 and the Tyr-245 and Tyr-334 mutants (5 μM) as described above and were quenched after 15 min or 24 h by the addition of 0.5% trifluoroacetic acid. Aliquots of the samples were cocrystallized with α-cyano-4-hydroxycinnamic acid (1:1), applied on the target, and dried at room temperature. The mass spectra were acquired on the TofSpec 2E MALDI-TOF mass spectrometer (Waters, Inc.) in reflectron mode, with each spectrum representing the average of 50 laser shots. Close external calibration was used based on the following mixture: bradikinin fragment 1-8, m/z=904.41 (for [M+H]+); angiotensin II, m/z=1046.54; [Glul]-fibrinopeptide B, m/z=1570.68; ACTH (clip 18-39), m/z=2465.20.

For the molecule “H18A: histone H4 peptide (residues 15-24) with His-18 mutated to alanine (Ac-AKRARKVLRD-NH2; UniProt P62805 16-25, looked up, variant H18A)”, the “histone H4 binding / affinity of hSET8 for mutant histone H4 peptide” value (from here on “histone H4 binding / affinity of hSET8”) is “completely abolishes binding” in data set [1]; “completely abolishes both histone H4 binding and methylation” in data set [1] (listed as His-18 to alanine). The AdoHcy binding result in data set [1] was “severely abrogate AdoHcy binding”.
For “H18F: histone H4 peptide (residues 15-24) with His-18 mutated to phenylalanine (Ac-AKRFRKVLRD-NH2; UniProt P62805 16-25, looked up, variant H18F)”, in data set [1], the “histone H4 binding / affinity of hSET8” value is on record as “modestly affects the affinity” and the AdoHcy binding entry is given as “severely abrogate AdoHcy binding”. For the same molecule, the “histone H4 binding / affinity of hSET8” value in data set [1] (listed as His-18 to phenylalanine) is “does not impact the affinity to nearly the same extent as the H347F substitution”.

B1: human SET7/9: human histone H3 Lys-4-specific methyltransferase (protein, UniProt Q8WTS6 1-366, looked up)
Histone-lysine …: MDSDDEMVEEAVEGHLDDDGLPHGFCTVTYSSTDRFEGNFVHGEKNGRGKFFFFDGSTLEGYYVDDALQGQGVYTYEDGGVLQGTYVDGELNGPAQEYDTDGRLIFKGQYKDNIRHGVCWIYYPDGGSLVGEVNEDGEMTGEKIAYVYPDERTALYGKFIDGEMIEGKLATLMSTEEGRPHFELMPGNSVYHFDKSTSSCISTNALLPDPYESERVYVAESLISSAGEGLFSKVAVGPNTVMSFYNGVRITHQEVDSRDWALNGNTLSLDEETVIDVPEPYNHVSKYCASLGHKANHSFTPNCIYDMFVHPRFGPIKCIRTLRAVEADEELTVAYGYDHSPPGKSGPEAPEWYQVELKAFQATQQK
For B1, in data set [2], the turnover number is 0.004 s⁻¹.

B2: Drosophila SU(VAR)3-9: H3 Lys-9-specific histone methyltransferase (protein, UniProt P45975 1-635, looked up)
Histone-lysine …: MATAEAQIGVNRNLQKQDLSNLDVSKLTPLSPEVISRQATINIGTIGHVAHGKSTVVKAISGVQTVRFKNELERNITIKLERLSEKKIKNLLTSKQQRQQYEIKQRSMLRHLAELRRHSRFRRLCTKPASSSMPASTSSVDRRTTRRSTSQTSLSPSNSSGYGSVFGCEEHDVDKIPSLNGFAKLKRRRSSCVGAPTPNSKRSKNNMGVIAKRPPKGEYVVERIECVEMDQYQPVFFVKWLGYHDSENTWESLANVADCAEMEKFVERHQQLYETYIAKITTELEKQLEALPLMENITVAEVDAYEPLNLQIDLILLAQYRAAGSRSQREPQKIGERALKSMQIKRAQFVRRKQLADLALFEKRMNHVEKPSPPIRVENNIDLDTIDSNFMYIHDNIIGKDVPKPEAGIVGCKCTEDTEECTASTKCCARFAGELFAYERSTRRLRLRPGSAIYECNSRCSCDSSCSNRLVQHGRQVPLVLFKTANGSGWGVRAATALRKGEFVCEYIGEIITSDEANERGKAYDDNGRTYLFDLDYNTAQDSEYTIDAANYGNISHFINHSCDPNLAVFPCWIEHLNVALPHLVFFTLRPIKAGEELSFDYIRADNEDVPYENLSTAVRVECRCGRDNCRKVLF
As for B2, the turnover number in data set [2] was 0.11 s⁻¹.

B3: wild-type hSET8: construct of hSET8 encoding residues 191-352, catalytic SET domain (protein, UniProt Q9NQR1 191-352, looked up, fragment)
chain: AAIAKQALKKPIKGKQAPRKKAQGKTQQNRKLTDFYPVRRSSRKSKAELQSEERKRIDELIESGKEEGMKIDLIDGKGRGVIATKQFSRGDFVVEYHGDLIEITDAKKREALYAQDPSTGCYMYYFQYLSKTYCVDATRETNRLGRLINHSKCGNCQTKLHD
On to B3, for which the “methylation state of Lys-20 after reaction with the H4 peptide” value in data set [3] (24 h) is on record as “complete conversion to monomethyl-Lys-20”. Moreover, in data set [3] (MALDI mass spectrometry), the product specificity entry is “bona fide histone H4 Lys-20 monomethylase”.

B4: mouse G9A: histone H3 Lys-9/27 methyltransferase (protein, UniProt Q9Z148 1-1263, looked up)
Histone-lysine …: MRGLPRGRGLMRARGRGRAAPTGGRGRGRGGAHRGRGRPRSLLSLPRAQASWAPQLPAGLTGPPVPCLPSQGEAPAEMGALLLEKEPRGAAERVHSSLGDTPQSEETLPKANPDSLEPAGPSSPASVTVTVGDEGADTPVGAASLIGDEPESLEGDGGRIVLGHATKSFPSSPSKGGACPSRAKMSMTGAGKSPPSVQSLAMRLLSMPGAQGAATAGPEPSPATTAAQEGQPKVHRARKTMSKPSNGQPPIPEKRPPEVQHFRMSDDMHLGKVTSDVAKRRKLNSGSLSEDLGSAGGSGDIILEKGEPRPLEEWETVVGDDFSLYYDAYSVDERVDSDSKSEVEALAEQLSEEEEEEEEEEEEEEEEEEEEEEEEEDEESGNQSDRSGSSGRRKAKKKWRKDSPWVKPSRKRRKREPPRAKEPRGVNGVGSSGPSEYMEVPLGSLELPSEGTLSPNHAGVSNDTSSLETERGFEELPLCSCRMEAPKIDRISERAGHKCMATESVDGELLGCNAAILKRETMRPSSRVALMVLCEAHRARMVKHHCCPGCGYFCTAGTFLECHPDFRVAHRFHKACVSQLNGMVFCPHCGEDASEAQEVTIPRGDGGTPPIGTAAPALPPLAHDAPGRADTSQPSARMRGHGEPRRPPCDPLADTIDSSGPSLTLPNGGCLSAVGLPPGPGREALEKALVIQESERRKKLRFHPRQLYLSVKQGELQKVILMLLDNLDPNFQSDQQSKRTPLHAAAQKGSVEICHVLLQAGANINAVDKQQRTPLMEAVVNNHLEVARYMVQLGGCVYSKEEDGSTCLHHAAKIGNLEMVSLLLSTGQVDVNAQDSGGWTPIIWAAEHKHIDVIRMLLTRGADVTLTDNEENICLHWASFTGSAAIAEVLLNAQCDLHAVNYHGDTPLHIAARESYHDCVLLFLSRGANPELRNKEGDTAWDLTPERSDVWFALQLNRKLRLGVGNRAVRTEKIICRDVARGYENVPIPCVNGVDGEPCPEDYKYISENCETSTMNIDRNITHLQHCTCVDDCSSSNCLCGQLSIRCWYDKDGRLLQEFNKIEPPLIFECNQACSCWRSCKNRVVQSGIKVRLQLYRTAKMGWGVRALQTIPQGTFICEYVGELISDAEADVREDDSYLFDLDNKDGEVYCIDARYYGNISRFINHLCDPNIIPVRVFMLHQDLRFPRIAFFSSRDIRTGEELGFDYGDRFWDIKSKYFTCQCGSEKCKHSAEAIALEQSRLARLDPHPELLPDLSSLPPINT
Consider B4, for which the turnover number in data set [2] is 0.024 s⁻¹.
